One molecule from article PMC8860598 can be followed below.

Positions count from the first letter of the chain named. Where two headings read alike, the source gives them in different places.

Common to all, as to test: EMSA
A general note: Mobility shift assays separate free from complexed probe on a gel.

In data set [1] the target is T1, Sen1 HD wt (Saccharomyces cerevisiae, UniProt Q00416 1095-1905).
T1 sequence: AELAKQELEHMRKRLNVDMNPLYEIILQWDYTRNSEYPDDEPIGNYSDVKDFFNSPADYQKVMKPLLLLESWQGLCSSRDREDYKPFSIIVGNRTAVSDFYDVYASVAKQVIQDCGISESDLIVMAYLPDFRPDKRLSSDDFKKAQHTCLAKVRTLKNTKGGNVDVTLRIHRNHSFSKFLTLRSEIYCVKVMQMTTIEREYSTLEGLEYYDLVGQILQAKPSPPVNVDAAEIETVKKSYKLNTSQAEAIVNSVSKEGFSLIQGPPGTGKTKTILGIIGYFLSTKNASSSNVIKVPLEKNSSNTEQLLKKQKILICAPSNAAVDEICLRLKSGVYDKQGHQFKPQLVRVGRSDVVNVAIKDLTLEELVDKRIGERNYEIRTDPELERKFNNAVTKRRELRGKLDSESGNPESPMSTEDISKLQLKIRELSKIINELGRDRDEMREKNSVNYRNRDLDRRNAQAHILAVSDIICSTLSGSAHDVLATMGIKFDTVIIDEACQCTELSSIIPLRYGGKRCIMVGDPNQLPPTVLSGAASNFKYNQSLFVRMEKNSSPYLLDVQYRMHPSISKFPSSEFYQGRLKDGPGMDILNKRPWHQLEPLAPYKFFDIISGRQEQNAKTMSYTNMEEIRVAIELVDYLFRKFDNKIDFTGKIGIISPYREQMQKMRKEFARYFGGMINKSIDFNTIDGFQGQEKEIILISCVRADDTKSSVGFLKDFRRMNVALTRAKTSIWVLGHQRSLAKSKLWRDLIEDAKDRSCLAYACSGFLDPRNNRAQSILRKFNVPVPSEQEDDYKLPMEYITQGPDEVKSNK

The target in data set [2] is T2, Sen1 HD T1623V (Saccharomyces cerevisiae, UniProt Q00416 1095-1905, T1623V).
T2 sequence: T1 sequence with T529V

The target in data set [3] is T3, Sen1 HD T1623E (Saccharomyces cerevisiae, UniProt Q00416 1095-1905, T1623E).
T3 sequence: T1 sequence with T529E

For data set [4], the target named is T1, Sen1 HD wt. The source holds these as a separate data set.
The target of data set [5] is T2, Sen1 HD T1623V. The source holds these as a separate data set.

Turning to UUCAUUUCAGACCAGCACCCACUCACUACAACUCACGACCAGGC (ssRNA) [DL3508 (called 40-mer RNA; printed sequence is 44 nt)], the Kd (as a rule, the equilibrium constant for the complex coming apart) in data set [1] was determined as 13.1 nM; in data set [2], 12.7 nM; in data set [3], 100 nM; in data set [4] it was 6.4 nM; in data set [5], 8.1 nM.
